Laboratory results taken from the supplement of paper PMC11246515.
± gives the standard deviation of the averaged measurements.

Test: total protein half-life in vivo (active degradation + dilution); higher = more stable protein
[1] = E. coli NCM3722 delta-clpP delta-lon delta-hslV, growth: N-lim chemostat, doubling time 6 h
[2] = E. coli NCM3722 delta-clpP, growth: N-lim chemostat, doubling time 6 h
[3] = E. coli NCM3722 delta-hslV, growth: N-lim chemostat, doubling time 6 h
[4] = E. coli NCM3722 delta-lon, growth: N-lim chemostat, doubling time 6 h
[5] = E. coli NCM3722 delta-smpB, growth: N-lim chemostat, doubling time 6 h
[6] = wild type E. coli NCM3722, growth: C-lim chemostat, doubling time 3 h
[7] = wild type E. coli NCM3722, growth: C-lim chemostat, doubling time 6 h
[8] = wild type E. coli NCM3722, growth: C-lim chemostat, doubling time 12 h
[9] = wild type E. coli NCM3722, growth: N-lim chemostat, doubling time 6 h
[10] = wild type E. coli NCM3722, growth: N-lim chemostat, doubling time 12 h
[11] = wild type E. coli NCM3722, growth: P-lim chemostat, doubling time 6 h
[12] = wild type E. coli NCM3722, growth: P-lim chemostat, doubling time 12 h

| Sequence | total protein half-life in vivo [1] [h] | total protein half-life in vivo [2] [h] | total protein half-life in vivo [3] [h] | total protein half-life in vivo [4] [h] | total protein half-life in vivo [5] [h] | total protein half-life in vivo [6] [h] | total protein half-life in vivo [7] [h] | total protein half-life in vivo [8] [h] | total protein half-life in vivo [9] [h] | total protein half-life in vivo [10] [h] | total protein half-life in vivo [11] [h] | total protein half-life in vivo [12] [h] |
| --- | --- | --- | --- | --- | --- | --- | --- | --- | --- | --- | --- | --- |
| MANYFNTLNLRQQLAQLGKCRFMGRDEFADGASYLQGKKVVIVGCGAQGLNQGLNMRDSGLDISYALRKEAIAEKRASWRKATENGFKVGTYEELIPQADLVINLTPDKQHSDVVRTVQPLMKDGAALGYSHGFNIVEVGEQIRKDITVVMVAPKCPGTEVREEYKRGFGVPTLIAVHPENDPKGEGMAIAKAWAAATGGHRAGVLESSFVAEVKSDLMGEQTILCGMLQAGSLLCFDKLVEEGTDPAYAEKLIQFGWETITEALKQGGITLMMDRLSNPAKLRAYALSEQLKEIMAPLFQKHMDDIISGEFSSGMMADWANDDKKLLTWREETGKTAFETAPQYEGKIGEQEYFDKGVLMIAMVKAGVELAFETMVDSGIIEESAYYESLHELPLIANTIARKRLYEMNVVISDTAEYGNYLFSYACVPLLKPFMAELQPGDLGKAIPEGAVDNGQLRDVNEAIRSHAIEQVGKKLRGYMTDMKRIAVAG | 3.97 ± 0.51 | 3.59 ± 0.64 | 3.31 ± 0.22 | 3.72 ± 0.042 | 3.46 ± 0.06 | 3.035 ± 0.013 | 5.6 ± 0.11 | 10.3 ± 0.33 | 3.472 ± 0.017 | 5.36 ± 0.15 | 5.67 ± 0.26 | 11.9 ± 0.2 |
| MAQIFNFSSGPAMLPAEVLKQAQQELRDWNGLGTSVMEVSHRGKEFIQVAEEAEKDFRDLLNVPSNYKVLFCHGGGRGQFAAVPLNILGDKTTADYVDAGYWAASAIKEAKKYCTPNVFDAKVTVDGLRAVKPMREWQLSDNAAYMHYCPNETIDGIAIDETPDFGADVVVAADFSSTILSRPIDVSRYGVIYAGAQKNIGPAGLTIVIVREDLLGKANIACPSILDYSILNDNGSMFNTPPTFAWYLSGLVFKWLKANGGVAEMDKINQQKAELLYGVIDNSDFYRNDVAKANRSRMNVPFQLADSALDKLFLEESFAAGLHALKGHRVVGGMRASIYNAMPLEGVKALTDFMVEFERRHG | 5.23 ± 1.6 | 3.87 ± 0.14 | 3.6976 ± 0.003 | 4.479 ± 0.022 | 3.55 ± 0.13 | 3.13 ± 0.2 | 5.71 ± 0.44 | 11.1 ± 2.7 | 3.83 ± 0.23 | 5.898 ± 0.048 | 5.74 ± 0.69 | 11.8 ± 0.42 |
| MAQLKFNSILVVCTGNICRSPIGERLLRKRLPGVKVKSAGVHGLVKHPADATAADVAANHGVSLEGHAGRKLTAEMARNYDLILAMESEHIAQVTAIAPEVRGKTMLFGQWLEQKEIPDPYRKSQDAFEHVYGMLERASQEWAKRLSR [P0ACZ2] | 4.76 ± 0.95 |  |  |  |  |  |  |  |  |  | 2.72 |  |
| MAQPAAIIRIKNLRLRTFIGIKEEEINNRQDIVINVTIHYPADKARTSEDINDALNYRTVTKNIIQHVENNRFSLLEKLTQDVLDIAREHHWVTYAEVEIDKLHALRYADSVSMTLSWQR [P0AC19] | 4.1 ± 0.57 | 2.73 ± 0.7 | 2.79 ± 0.23 | 3.5 ± 0.081 | 2.93 ± 0.14 |  | 4.77 ± 0.2 | 10 ± 4 | 2.58 ± 0.23 | 3.989 ± 0.015 | 5.16 ± 0.45 | 11.5 ± 0.42 |
| MAQQTPLYEQHTLCGARMVDFHGWMMPLHYGSQIDEHHAVRTDAGMFDVSHMTIVDLRGSRTREFLRYLLANDVAKLTKSGKALYSGMLNASGGVIDDLIVYYFTEDFFRLVVNSATREKDLSWITQHAEPFGIEITVRDDLSMIAVQGPNAQAKAATLFNDAQRQAVEGMKPFFGVQAGDLFIATTGYTGEAGYEIALPNEKAADFWRALVEAGVKPCGLGARDTLRLEAGMNLYGQEMDETISPLAANMGWTIAWEPADRDFIGREALEVQREHGTEKLVGLVMTEKGVLRNELPVRFTDAQGNQHEGIITSGTFSPTLGYSIALARVPEGIGETAIVQIRNREMPVKVTKPVFVRNGKAVA | 4.25 ± 0.29 | 3.94 ± 0.048 | 4.22 ± 0.35 | 4.16 ± 0.17 | 3.94 ± 0.068 | 3.01 ± 0.22 | 5.71 ± 0.81 | 10.5 ± 0.62 | 3.81 ± 0.2 | 6.76 ± 0.92 | 5.88 ± 0.12 | 11.4 ± 0.68 |
| MAQVAIITASDSGIGKECALLLAQQGFDIGITWHSDEEGAKDTAREVVSHGVRAEIVQLDLGNLPEGALALEKLIQRLGRIDVLVNNAGAMTKAPFLDMAFDEWRKIFTVDVDGAFLCSQIAARQMVKQGQGGRIINITSVHEHTPLPDASAYTAAKHALGGLTKAMALELVRHKILVNAVAPGAIATPMNGMDDSDVKPDAEPSIPLRRFGATHEIASLVVWLCSEGANYTTGQSLIVDGGFMLANPQFNPE | 5.0837 ± 0.0019 | 4.64 ± 0.2 | 5.14 ± 0.54 | 4.36 ± 0.089 | 4.64 ± 0.24 | 2.863 ± 0.007 | 5.19 ± 0.38 | 11 ± 0.19 | 4.81 ± 0.42 | 7.86 ± 0.13 | 5.6 ± 0.22 | 10.9 ± 0.34 |
| MARLAAFDMDGTLLMPDHHLGEKTLSTLARLRERDITLTFATGRHALEMQHILGALSLDAYLITGNGTRVHSLEGELLHRDDLPADVAELVLYQQWDTRASMHIFNDDGWFTGKEIPALLQAFVYSGFRYQIIDVKKMPLGSVTKICFCGDHDDLTRLQIQLYEALGERAHLCFSATDCLEVLPVGCNKGAALTVLTQHLGLSLRDCMAFGDAMNDREMLVSVGSGFIMGNAMPQLRAELPHLPVIGHCRNQAVSHYLTHWLDYPHLPYSPE | 5.84 ± 0.52 |  |  | 1.61 |  |  |  |  |  |  |  |  |
